{"source": "paper PMC2992962", "about": "(Protein expression and purification, 2010)", "target": "the molecule itself", "assay": "SEC"}
{"protein": "recombinant human his-GAPDHS (sperm-specific glyceraldehyde-3-phosphate dehydrogenase lacking the proline-rich N-terminal sequence) (enzyme) MVSVARELTVGINGFGRIGRLVLRACMEKGVKVVAVNDPFIDPEYMVYMFKYDSTHGRYKGSVEFRNGQLVVDNHEISVYQCKEPKQIPWRAVGSPYVVESTGVYLSIQAASDHISAGAQRVVISAPSPDAPMFVMGVNENDYNPGSMNIVSNASCTTNCLAPLAKVIHERFGIVEGLMTTVHSYTATQKTVDGPSRKAWRDGRGAHQNIIPASTGAAKAVTKVIPELKGKLTGMAFRVPTPDVSVVDLTCRLAQPAPYSAIKEAVKAAAKGPMAGILAYTEDEVVSTDFLGDTHSSIFDAKAGIALNDNFVKLISWYDNEYGYSHRVVDLLRYMFSRDK", "values": [{"measurement": "stoichiometry N", "result": 4}]}
